Measurements from patent US20020155547A1 (Biogen, published 2002).

T1: IFNAR2/Fc fusion protein (extracellular domain of the human IFNAR2 receptor chain fused to the hinge, CH2 and … (human, UniProt P48551 27-243))
T1 construct: extracellular domain; also called IFNAR2-ectodomain/Fc fusion protein; IFNAR/Fc; not shown: human IgG1 heavy chain constant region: hinge, CH2 and CH3 domains
T1 sequence (looked up): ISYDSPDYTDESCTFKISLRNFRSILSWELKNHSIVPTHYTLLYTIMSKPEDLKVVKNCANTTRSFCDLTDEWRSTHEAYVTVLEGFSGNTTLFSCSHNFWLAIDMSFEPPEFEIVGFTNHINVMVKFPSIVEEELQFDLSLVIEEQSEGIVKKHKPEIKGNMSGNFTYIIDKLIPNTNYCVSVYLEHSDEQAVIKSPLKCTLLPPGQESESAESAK

T2: type I interferon cell surface receptor complex (IFNAR1/2 complex) expressed on Daudi Burkitt's lymphoma cells (human, UniProt P17181 28-557; P48551 27-515)
T2 construct: whole, on cells; Both chains together comprise the receptor for interferon-beta on the cells of the FACS assay; also called IFNAR1/2 cell surface receptor; cognate receptor on Daudi cells
T2 sequence (looked up) 1: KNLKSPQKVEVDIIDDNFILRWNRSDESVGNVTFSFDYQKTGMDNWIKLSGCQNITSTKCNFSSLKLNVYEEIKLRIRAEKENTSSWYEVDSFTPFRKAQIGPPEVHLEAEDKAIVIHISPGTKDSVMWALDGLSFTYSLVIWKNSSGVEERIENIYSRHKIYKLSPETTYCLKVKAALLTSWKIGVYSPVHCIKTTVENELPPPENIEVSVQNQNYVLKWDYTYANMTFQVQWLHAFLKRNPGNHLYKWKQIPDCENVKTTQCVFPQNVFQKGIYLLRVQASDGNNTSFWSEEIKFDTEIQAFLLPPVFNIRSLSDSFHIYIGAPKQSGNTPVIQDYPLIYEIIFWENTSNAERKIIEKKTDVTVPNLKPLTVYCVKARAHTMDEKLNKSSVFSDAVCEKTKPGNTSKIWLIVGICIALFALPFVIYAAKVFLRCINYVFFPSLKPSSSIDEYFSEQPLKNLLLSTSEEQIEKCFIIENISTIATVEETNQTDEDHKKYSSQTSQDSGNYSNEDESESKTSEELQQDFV
T2 sequence (looked up) 2: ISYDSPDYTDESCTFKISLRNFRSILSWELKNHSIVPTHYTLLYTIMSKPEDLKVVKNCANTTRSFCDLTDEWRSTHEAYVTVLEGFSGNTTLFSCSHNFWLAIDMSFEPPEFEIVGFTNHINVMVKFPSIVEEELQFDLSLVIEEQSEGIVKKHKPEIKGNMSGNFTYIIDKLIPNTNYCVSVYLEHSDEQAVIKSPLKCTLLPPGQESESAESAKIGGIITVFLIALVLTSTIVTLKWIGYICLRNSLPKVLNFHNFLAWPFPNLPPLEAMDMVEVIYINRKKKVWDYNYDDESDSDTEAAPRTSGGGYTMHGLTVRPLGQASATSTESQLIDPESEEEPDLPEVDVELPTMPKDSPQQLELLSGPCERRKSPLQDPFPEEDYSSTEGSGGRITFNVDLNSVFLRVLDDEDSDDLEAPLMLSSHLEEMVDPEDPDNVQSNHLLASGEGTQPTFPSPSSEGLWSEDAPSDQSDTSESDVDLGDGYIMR


What was measured:
[1] = molecular target: T1, IFNAR2/Fc fusion protein (extracellular …); assay: ELISA on captured IFNAR2-Fc; wild type is the reference (100 %), its EC50 is not given
Experimental: The receptor binding properties of the Interferon-beta mutants described in C were assessed using two different binding assays. One assay measured binding of the interferon-beta mutants to a fusion protein, IFNAR2/Fc, comprising the extracellular domain of the human IFNAR2 receptor chain fused to part of the constant region of a human IgG. IFNAR2-Fc was expressed in chinese hamster ovary (CHO) cells and purified by protein A sepharose affinity chromatography according to the instructions of the manufacturer (Pierce Chem. Co., Rockford, Ill., catalog #20334). The binding of interferon-beta mutants to IFNAR2-Fc was measured in an ELISA format assay. […] Binding of the interferon-beta mutants to IFNAR2-Fc was measured by adding 50 μl/well mutant interferon-beta in conditioned media, serially diluted in Dulbecco's Modified Eagle's Medium (DMEM) supplemented with 10% fetal bovine serum, and incubating for 2 hours at 4° C. […] After washing, interferon-beta bound to the plates was detected by adding 50 μl/well of a cocktail consisting of a 1:1000 dilution of a rabbit polyclonal anti-interferon antibody (#447, Biogen, Inc.) plus horseradish peroxidase (HRP)-labelled donkey anti-rabbit IgG (Jackson ImmunoResearch), and incubating for 15 minutes at 4° C. […]

[2] = molecular target: T2, type I interferon cell surface receptor …; assay: FACS receptor binding assay on Daudi cells; wild type is the reference (100 %), its value is not given
Experimental: A second receptor binding assay was used to measure the affinity with which the interferon-beta mutants bound to Daudi cells expressing both receptor chains, IFNAR1 and IFNAR2, which together comprise the receptor for interferon-beta. This FACS-based assay used a blocking monoclonal antibody directed against the extracellular domain of IFNAR1, EA12 (Biogen, Inc.), to distinguish unoccupied (free) receptor from receptor to which interferon-beta was bound. Daudi cells (20 μl at 2.5×10⁷ cells/ml) were placed in 96-well V-bottom ELISA plates, and incubated for 1 hour at 4° C. with various concentrations of interferon-beta mutant (20 μl in FACS buffer; 5% FBS, 0.1% NaN₃ in PBS). Desirable serial dilutions of interferon-beta mutants ranged from 0.5 μM down to 0.5 pM. To each well was added 100 ng of biotinylated murine anti-IFNAR1 monoclonal antibody EA12 (10 μl), and the plates incubated for an additional 2 minutes at room temperature before being washed twice with FACS buffer (4° C.). […] The samples were then analyzed by flow cytometry on a FACScan (Becton Dickinson). […]

[3] = molecular target: T1, IFNAR2/Fc fusion protein (extracellular …); assay: ELISA on captured IFNAR2-Fc
Experimental: FIG. 3. Binding of alanine substituted interferon-beta mutants to a dimeric fusion protein comprised of the extracellular domain of the type I interferon receptor chain, IFNAR2/Fc. The binding affinities of the alanine substituted IFN mutants (A1-E) for the IFNAR2 receptor chain were determined as described in Example 1 (subsection D). The histogram presents their binding affinities in this assay relative to wild type his-IFN-beta (% w.t.). The % w. t. values were calculated as the (affinity of wild type his-IFN-beta)/(affinity of mutant IFN-beta)×100. The % w. t. (x) for multiple assays (n=3) and an average % w.t. (x) for the experimental set are shown.
(§1) The receptor binding properties of the Interferon-beta mutants described in C were assessed using two different binding assays. One assay measured binding of the interferon-beta mutants to a fusion protein, IFNAR2/Fc, comprising the extracellular domain of the human IFNAR2 receptor chain fused to part of the constant region of a human IgG. IFNAR2-Fc was expressed in chinese hamster ovary (CHO) cells and purified by protein A sepharose affinity chromatography according to the instructions of the manufacturer (Pierce Chem. Co., Rockford, Ill., catalog #20334). The binding of interferon-beta mutants to IFNAR2-Fc was measured in an ELISA format assay. ELISA plates were prepared by coating flat-bottomed 96 well plates overnight at 4° C. with 50 μl/well of mouse anti-human IgG1 monoclonal antibody (CDG5-AA9, Biogen, Inc.) at 10 μg/ml in coating buffer (50 mM NaHCO₃, 0.2 mM MgCl₂, 0.2 mM CaCl₂, pH 9.6). Plates were washed twice with PBS containing 0.05% Tween-20, and blocked with 0.5% non-fat dry milk in PBS for 1 hour at room temperature. After two more washes, 50 μl of 1 μg/ml IFNAR2-Fc in 0.5% milk in PBS containing 0.05% Tween-20 was added to each well and incubated for 1 hour at room temperature, and the plates were then washed twice more.

[4] = molecular target: T1, IFNAR2/Fc fusion protein (extracellular …); assay: ELISA, IFNAR2-Fc captured on anti-human IgG1 antibody, mutant in conditioned medium
Experimental: as §1, with “more. Binding of the interferon-beta mutants to IFNAR2-Fc was measured by adding 50 μl/well mutant interferon-beta in conditioned media, serially diluted in Dulbecco's Modified Eagle's Medium (DMEM) supplemented with 10% fetal bovine serum, and incubating for 2 hours at 4° C. Dilutions of interferon-beta mutant typically ranged from approximately 1 μM down to 10 pM. After washing, interferon-beta bound to the plates was detected by adding 50 μl/well of a cocktail consisting of a 1:1000 dilution of a rabbit polyclonal anti-interferon antibody (#447, Biogen, Inc.) plus horseradish peroxidase (HRP)-labelled donkey anti-rabbit IgG (Jackson ImmunoResearch), and incubating for 15 minutes at 4° C. After two washes, HRP substrate was added, and the plate was incubated at 4° C. before being read on an ELISA plate reader at an absorbance of 450 nm. Data were plotted as absorbance versus the concentration of mutant interferon-beta, and the affinity for the binding of the mutant interferon-beta to IFNAR2-Fc was determined by fitting the data to a simple hyperbolic binding equation.” for “more.”

binding result [1] | binding result [2] | concentration tested relative to the w.t. his-IFN-beta EC50 [3] [fold] | binding result [4] | Binder
binds | binds |  |  | histidine tagged wild-type interferon-beta-1a (ligand, glycosylated at Asn 80 of the interferon-beta moiety (expressed in human EBNA 293 cells), Tested as conditioned medium of transfected EBNA 293 cells; also called his IFN-beta; His6-tagged) SGGHHHHHHSSGDDDDKMSYNLLGFLQRSSNFQCQKLLWQLNGRLEYCLKDRMNFDIPEEIKQLQQFQKEDAALTIYEMLQNIFAIFRQDSSSTGWNETIVENLLANVYHQINHLKTVLEEKLEKEDFTRGKLMSSLHLKRYYGRILHYLKAKEYSHCAWTIVRVEILRNFYFINRLTGYLRN
 |  | 500 | no binding | his tagged interferon-beta alanine substitution mutant AB2 (ligand, glycosylated at Asn 80 of the interferon-beta moiety) SGGHHHHHHSSGDDDDKMSYNLLGFLQRSSNFQCQKLLWQLNGRLEYCLKDRAAFAIPAEIKQLQQFQKEDAALTIYEMLQNIFAIFRQDSSSTGWNETIVENLLANVYHQINHLKTVLEEKLEKEDFTRGKLMSSLHLKRYYGRILHYLKAKEYSHCAWTIVRVEILRNFYFINRLTGYLRN
 |  | 500 | no binding | his tagged interferon-beta alanine substitution mutant AB1 (ligand, glycosylated at Asn 80 of the interferon-beta moiety) SGGHHHHHHSSGDDDDKMSYNLLGFLQRSSNFQCQKLLWQLNGRAAACAADRMNFDIPEEIKQLQQFQKEDAALTIYEMLQNIFAIFRQDSSSTGWNETIVENLLANVYHQINHLKTVLEEKLEKEDFTRGKLMSSLHLKRYYGRILHYLKAKEYSHCAWTIVRVEILRNFYFINRLTGYLRN
 |  | 500 | no binding | his tagged interferon-beta alanine substitution mutant E (ligand, glycosylated at Asn 80 of the interferon-beta moiety, also called E helix) SGGHHHHHHSSGDDDDKMSYNLLGFLQRSSNFQCQKLLWQLNGRLEYCLKDRMNFDIPEEIKQLQQFQKEDAALTIYEMLQNIFAIFRQDSSSTGWNETIVENLLANVYHQINHLKTVLEEKLEKEDFTRGKLMSSLHLKRYYGRILHYLKAKEYSHCAWTIVRAEILANFAFIARLTGYLRN
 |  | 500 | no binding | his tagged interferon-beta alanine substitution mutant A2 (ligand, glycosylated at Asn 80 of the interferon-beta moiety, also called A2 helix) SGGHHHHHHSSGDDDDKMSYNLLGFLQRSSNAACAALLAALNGRLEYCLKDRMNFDIPEEIKQLQQFQKEDAALTIYEMLQNIFAIFRQDSSSTGWNETIVENLLANVYHQINHLKTVLEEKLEKEDFTRGKLMSSLHLKRYYGRILHYLKAKEYSHCAWTIVRVEILRNFYFINRLTGYLRN
